Reference: patent US20260207704A1, “STAPLED PEPTIDES AND METHODS THEREOF” (priority 2022, published 2026)
*1 amine or outer side, *2 acyl side, *3 side chain or, on linkers, in order; H or OH if unused. Bridges are numbered along the chain shown (N, C = ends). Primed or numbered codes have the meaning given here. [ ]: non-standard residue; d: D form. B5(4) = 2-amino-2-(pent-4-en-1-yl)hept-6-enoic acid, stapled through each of its two olefin groups with other olefin-containing amino acid residues, O=C(C(CCCC=[*:3])(CCCC=[*:4])N[*:1])[*:2]; PyrS2″ = (S)-3-amino-1-((pent-4-en-1-yloxy)carbonyl)pyrrolidine-3-carboxylic acid (olefin stapling residue), C=CCCCOC(=O)N1CC[C@@](N[*:1])(C(=O)[*:2])C1; PyrS2 = (S)-3-amino-1-((pent-4-en-1-yloxy)carbonyl)pyrrolidine-3-carboxylic acid, olefin staple residue, C=CCCCOC(=O)N1CC[C@@](N[*:1])(C(=O)[*:2])C1; TriAzLys(4) = (S)-2-amino-5-(1H-1,2,3-triazol-1-yl)pentanoic acid, staple through triazole 4-position, O=C([C@H](CCCn1cc([*:3])nn1)N[*:1])[*:2]; TriAzLys = (S)-2-amino-5-(1H-1,2,3-triazol-1-yl)pentanoic acid, stapled through triazole 4-position, O=C([C@H](CCCn1cc([*:3])nn1)N[*:1])[*:2]; PyrS2(5) = (S)-3-amino-1-((pent-4-en-1-yloxy)carbonyl)pyrrolidine-3-carboxylic acid, C=CCCCOC(=O)N1CC[C@@](N[*:1])(C(=O)[*:2])C1; B5″ = 2-amino-2-(pent-4-en-1-yl)hept-6-enoic acid (bis-olefin stapling residue), C=CCCCC(CCCC=C)(N[*:1])C(=O)[*:2]; 2F3MeF(3) = aromatic amino acid residue, Cc1cccc(C[C@H](N[*:1])C(=O)[*:2])c1F; 2F3MeF″ = aromatic residue, Cc1cccc(C[C@H](N[*:1])C(=O)[*:2])c1F; Phe(3-COOH) = N[C@@H](Cc1cccc(C(=O)O)c1)C(=O)O; 2F3MeF = Cc1cccc(C[C@H](N[*:1])C(=O)[*:2])c1F; Abu(4-yl) = O=C([C@H](CC[*:3])N[*:1])[*:2]; Bta = N[C@@H](Cc1csc2ccccc12)C(=O)O; Lys(iPr) = CC(C)NCCCC[C@H](N)C(=O)O; αAllylPro = C=CC[C@@]1(C(=O)O)CCCN1; BztA = aromatic amino acid residue; tBuAla = CC(C)(C)C[C@H](N)C(=O)O; 3Thi = N[C@@H](Cc1ccsc1)C(=O)O; Cha = N[C@@H](CC1CCCCC1)C(=O)O; PyrS2(4) = not defined here; hSer = N[C@@H](CCO)C(=O)O; BztA″ = aromatic residue; Nle = CCCC[C@H](N)C(=O)O; TfeGA = not defined here; GlnR = not defined here; PL3 = not defined here; B5 = not defined here; Aib = CC(C)(N)C(=O)O

Biological target: beta-catenin (human)
Sequence (B6V8E6 146-665 limits assumed): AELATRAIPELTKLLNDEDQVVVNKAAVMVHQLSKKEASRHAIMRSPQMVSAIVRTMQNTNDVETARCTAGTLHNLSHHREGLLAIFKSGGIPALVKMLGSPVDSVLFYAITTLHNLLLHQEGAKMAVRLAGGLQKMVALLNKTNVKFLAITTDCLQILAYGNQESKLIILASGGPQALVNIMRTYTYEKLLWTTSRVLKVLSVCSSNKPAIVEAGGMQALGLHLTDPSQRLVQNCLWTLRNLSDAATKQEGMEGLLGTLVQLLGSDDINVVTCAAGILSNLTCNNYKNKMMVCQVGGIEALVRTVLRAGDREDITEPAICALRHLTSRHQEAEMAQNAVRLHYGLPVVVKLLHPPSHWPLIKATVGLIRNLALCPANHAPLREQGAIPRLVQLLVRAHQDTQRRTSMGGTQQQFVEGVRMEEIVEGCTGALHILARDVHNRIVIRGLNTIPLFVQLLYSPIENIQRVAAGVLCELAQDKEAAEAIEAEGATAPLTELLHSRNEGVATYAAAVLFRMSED
Experiment: fluorescence polarization

IC50 [nM] | Binder
> 1000 | Ac-[PL3][hSer][tBuAla][B5]D[TfeGA]AAFK[PyrS2(4)][2F3MeF][Bta][GlnR]A-NH2 (staple 1-4; bridge 10-14; reading uncertain; also: PyrS2 tied into a staple, partner not placed) [I-116]
> 1000 | Ac-[PL3][hSer][tBuAla][B5]D[TfeGA]AAFK[PyrS2(4)][2F3MeF][Bta][GlnR]A-NH2 (staple 1-4; bridge 10-14; reading uncertain; also: PyrS2 tied into a staple, partner not placed) [I-115]
< 50 | Ac-[PL3]D[tBuAla][B5]D[TfeGA]AAFK[PyrS2(4)][2F3MeF][Bta][GlnR]A-NH2 (staple 1-4; bridge 10-14; reading uncertain; also: PyrS2 tied into a staple, partner not placed) [I-112]
< 50 | Ac-[PL3]D[tBuAla][B5]D[Phe(3-COOH)]AAFK[PyrS2(4)][2F3MeF][Bta][GlnR]L-NH2 (staple 1-4; bridge 10-14; not fully specified (residue 10); printed as Ac-PL3-Asp-Npg-B5-Asp-3COOHF-Ala-Ala-Phe-Lys*3-PyrS2-2F3MeF-BztA-GlnR*3-Leu-NH2; reading uncertain; also: PyrS2 tied into a staple, partner not placed) [I-105]
< 50 | Ac-[PL3]D[Cha][B5]D[Phe(3-COOH)][Cha]AFK[PyrS2(4)][2F3MeF][Bta][GlnR]A-NH2 (staple 1-4; bridge 10-14; not fully specified (residue 10); printed as Ac-PL3-Asp-Cha-B5-Asp-3COOHF-Cha-Ala-Phe-Lys*3-PyrS2-2F3MeF-BztA-GlnR*3-Ala-NH2; reading uncertain; also: PyrS2 tied into a staple, partner not placed) [I-103]
< 50 | Ac-[PL3]N[tBuAla][B5]D[TfeGA]AAFK[PyrS2(4)][2F3MeF][Bta][GlnR]A-NH2 (staple 1-4; bridge 10-14; reading uncertain; also: PyrS2 tied into a staple, partner not placed) [I-113]
< 50 | Ac-[αAllylPro]D[tBuAla][B5″]DDAAF[TriAzLys][PyrS2″][3Thi][Bta][Abu(4-yl)]-NH2 (triazole 10-14; also: PL3-B5 and PyrS2 links not placed) [I-18]
< 50 | Ac-[PL3]D[tBuAla][B5]D[Phe(3-COOH)][tBuAla]AFK[PyrS2(4)][2F3MeF][Bta][GlnR]A-NH2 (staple 1-4; bridge 10-14; not fully specified (residue 10); printed as Ac-PL3-Asp-Npg-B5-Asp-3COOHF-Npg-Ala-Phe-Lys*3-PyrS2-2F3MeF-BztA-GlnR*3-Ala-NH2; reading uncertain; also: PyrS2 tied into a staple, partner not placed) [I-100]
> 1000 | Ac-[αAllylPro][hSer][tBuAla][B5]D[Phe(3-COOH)][Nle]AFK[PyrS2″][2F3MeF″][BztA″][GlnR]LS-NH2 (bridge 10-14; not fully specified (bridges); printed as Ac-PL3-Hse-Npg-B5-Asp-3COOHF-nLeu-Ala-Phe-Lys*3-PyrS2-2F3MeF-BztA-GlnR*3-Leu-Ser-NH2; reading uncertain; also: Lys10 and GlnR14 marked *3) [I-146]
> 1000 | Ac-[αAllylPro]D[tBuAla][B5″][hSer][TfeGA]AAFK[PyrS2″][2F3MeF][Bta][GlnR]A-NH2 (bridge 10-14; not fully specified (bridges); reading uncertain; also: Lys*3 and GlnR*3 marked *3) [I-118]
< 50 | Ac-[PL3]D[tBuAla][B5]D[Phe(3-COOH)][tBuAla]AFK[PyrS2″][2F3MeF(3)][BztA][GlnR]A-NH2 (staple 1-4 (inferred); bridge 10-14; not fully specified (residue 10, bridges); printed as Ac-PL3-Asp-Npg-B5-Asp-3COOHF-Npg-Ala-Phe-Lys*3-PyrS2-2F3MeF-BztA-GlnR*3-Ala-NH2; reading uncertain; also: Lys10 and GlnR14 marked *3) [I-99]
> 1000 | Ac-[αAllylPro]D[tBuAla][B5″][hSer][TfeGA]AAFK[PyrS2″][2F3MeF][Bta][GlnR]A-NH2 (bridge 10-14; not fully specified (bridges); reading uncertain; also: Lys*3 and GlnR*3 marked *3) [I-119]
> 1000 | Ac-[αAllylPro][hSer][tBuAla][B5]D[Phe(3-COOH)]AAFK[PyrS2(5)][2F3MeF″][BztA″][GlnR]LS-NH2 (bridge 10-14; not fully specified (bridges); printed as Ac-PL3-Hse-Npg-B5-Asp-3COOHF-Ala-Ala-Phe-Lys*3-PyrS2-2F3MeF-BztA-GlnR*3-Leu-Ser-NH2; reading uncertain; also: Lys10 and GlnR14 marked *3) [I-145]
< 50 | Ac-[αAllylPro]D[tBuAla][B5]D[Phe(3-COOH)][Aib]AF[TriAzLys(4)][PyrS2][3Thi][Bta][Abu(4-yl)]A-NH2 (triazole 10-14; not fully specified (bridges); printed as Ac-PL3-Asp-Npg-B5-Asp-3COOHF-Aib-Ala-Phe-TriAzLys*3-PyrS2-3Thi-BztA-sAla*3-Ala-NH2; reading uncertain) [I-335]
< 50 | Ac-[PL3]D[Cha][B5]D[Phe(3-COOH)]AAFK[PyrS2″][2F3MeF(3)][BztA][GlnR]A-NH2 (staple 1-4 (inferred); bridge 10-14; not fully specified (residue 10, bridges); printed as Ac-PL3-Asp-Cha-B5-Asp-3COOHF-Ala-Ala-Phe-Lys*3-PyrS2-2F3MeF-BztA-GlnR*3-Ala-NH2; reading uncertain; also: Lys10 and GlnR14 marked *3) [I-98]
< 50 | Ac-[PL3]DL[B5(4)]DDAAF[dK][PyrS2″][3Thi][Bta][GlnR]-NH2 (bridge 10-14; not fully specified (bridges); printed as Ac-PL3-Asp-Leu-B5-Asp-Asp-Ala-Ala-Phe-dLys*3-PyrS2-3Thi-BztA-GlnR*3-NH2; reading uncertain) [I-2]
< 50 | Ac-[PL3]D[tBuAla][B5]D[Phe(3-COOH)][tBuAla]AFK[PyrS2(4)][2F3MeF][Bta][GlnR]L-NH2 (staple 1-4; bridge 10-14; not fully specified (residue 10); printed as Ac-PL3-Asp-Npg-B5-Asp-3COOHF-Npg-Ala-Phe-Lys*3-PyrS2-2F3MeF-BztA-GlnR*3-Leu-NH2; reading uncertain; also: PyrS2 tied into a staple, partner not placed) [I-108]
< 50 | Ac-[αAllylPro]D[tBuAla][B5(4)]D[Phe(3-COOH)][GlnR]AFL[PyrS2(5)][2F3MeF(3)][BztA][GlnR](diaminobutane)A-NH2 (staple 1-4 (inferred); not fully specified (bridges); printed as Ac-PL3-Asp-Npg-B5-Asp-3COOHF-GlnR-Ala-Phe-Leu-PyrS2-2F3MeF-BztA-[diaminobutane]GlnR-Ala-NH2; reading uncertain) [I-92]
< 50 | Ac-[PL3]D[tBuAla][B5]D[Phe(3-COOH)][Cha]AFK[PyrS2(4)][2F3MeF][Bta][GlnR]A-NH2 (staple 1-4; bridge 10-14; not fully specified (residue 10); printed as Ac-PL3-Asp-Npg-B5-Asp-3COOHF-Cha-Ala-Phe-Lys*3-PyrS2-2F3MeF-BztA-GlnR*3-Ala-NH2; reading uncertain; also: PyrS2 tied into a staple, partner not placed) [I-102]
> 1000 | Ac-[αAllylPro]N[Cha][B5″]DT[Lys(iPr)]AF[GlnR][PyrS2″]F[Bta]K-NH2 (bridge 10-14; reading uncertain; also: PL3-B5 and PyrS2 links not placed, printed as Ac-PL3-Asn-Cha-B5-Asp-Thr-iPrLys-Ala-Phe-GlnR*3-PyrS2-Phe-BztA-Lys*3-NH2) [I-150]
< 50 | Ac-[PL3]D[Cha][B5]D[Phe(3-COOH)]AAFK[PyrS2(4)][2F3MeF][Bta][GlnR]L-NH2 (staple 1-4; bridge 10-14; not fully specified (residue 10); printed as Ac-PL3-Asp-Cha-B5-Asp-3COOHF-Ala-Ala-Phe-Lys*3-PyrS2-2F3MeF-BztA-GlnR*3-Leu-NH2; reading uncertain; also: PyrS2 tied into a staple, partner not placed) [I-107]
